Reference: article PMC2673414 (Nucleic Acids Research, 2009)

Target: the molecule itself
Experiment: crystal structure

B1: human TREX2 protein (enzyme)
chain: MSEAPRAETFVFLDLEATGLPSVEPEIAELSLFAVHRSSLENPEHDESGALVLPRVLDKLTLCMCPERPFTAKASEITGLSSEGLARCRKAGFDGAVVRTLQAFLSRQAGPICLVAHNGFDYDFPLLCAELRRLGARLPRDTVCLDTLPALRGLDRAHSHGTRARGRQGYSLGSLFHRYFRAEPSAAHSAEGDVHTLLLIFLHRAAELLAWADEQARGWAHIEPMYLPPDDPSLEA
B1: binds.
